# Results from patent publication US5876717A (Ajinomoto Co., Inc., dated 1999).
# Tests used:
# β chain of IL-2 receptor = experiment: Inhibition of binding of 125I-labelled IL-2 to MOLT4 cells transfected with cDNA for the β chain of IL-2 receptor; set-up: species or system human; conditions: 4° C.
# Experimental: To the resulting suspension were added polypeptide Fv(TU27), TU27 monoclonal antibody (originating in hybridoma FERM BP-2510), polypeptide Fv(TU25) and TU25 monoclonal antibody (originating in hybridoma FERM BP-3529) diluted with the same type culture medium to an appropriate concentration, and this was reacted for one hour at 4° C.
# [1] = test system: β chain of IL-2 receptor on the surface of each YT cell; experiment: Inhibition of binding of 125I-labelled TU27 or TU25 antibody to YT cells; set-up: species or system human; conditions: 4° C.
# Experimental: (§1) In an RPMI-1640 culture medium containing 0.5% BSA and 0.02% NaN2 there were suspended 5×10^5 YT cells to which were added polypeptide Fv(TU27), TU27 antibody, polypeptide Fv(TU25) and TU25 antibody diluted with the same type culture medium to an appropriate concentration and then reacted for one hour at 4° C. Then a TU27 or TU25 antibody labelled with ^125 I according to the chloramine T method was added to the mixture which was subjected to a 2 hour reaction at 4° C., after which the radioactivity bound to cell surfaces was measured.
# [2] = target: β chain of human IL-2 receptor (human, UniProt P14784); experiment: competition with 125I-labelled TU27 or TU25 antibody on YT cells
# Experimental: as §1, with “NaN_2” for “NaN2”, “^125I” for “^125 I”
Molecule,activity to inhibit the binding of IL-2 to a β chain of an IL-2 receptor (β chain of IL-2 receptor),activity to inhibit the binding between TU27 or TU25 monoclonal antibody and the β chain of IL-2 receptor [1],binding result [2]
Fv(TU27): single chain polypeptide of 240 amino acids consisting only of V regions of TU27 anti-IL-2 receptor β chain antibody (protein) scFv: MDILLTQSPAILSVSPGERVSFSCRASQSIGTSIHWYQQRTNGSPRLLIKYASESLSGIPSRFSGSGSGTDFTLSITSVDSEDIADYYCQQTNSWPTTFGGGTKLELKVDKSSGSGSESKSTQVKLEESGPGLVKPSQSLSLTCTVTGYPITSDYAWDWIRQFPGNKLEWMGYVSYSGSTDYNPSLKSRISISRDTSKNQFFLQLNSVTTEDTATYYCARGGFPYAMDYWGQGTTVTVSS,have activity to inhibit the binding of IL-2,have activity to inhibit the binding,–
polypeptide Fv(TU25) (scFv) scFv: MDIQLTQSPAILSVSPGERVSFSCRASQTIGTSIHWYQQRTNGSPRLLIKYASESISGIPSRFSGSGSGTDFTLSINNVESEDIADYYCQQTNTWPTTFGSGTKLELKVDKSSGSGSESKSTQVKLEQSGGGLVKPGGSLKLSCAASGFAFSSYDMSWVRQTPEKRLNWVATFSSDGSDTDYPDSVKGRFTISRDNARNTLYLQMSSLRSEDTALYYCARGYPYAMDYWGQGTTVTVSS,have activity to inhibit the binding of IL-2,have activity to inhibit the binding,binds
